# Biological target: Flag-TSC2 (UniProt P49815)
# Sequence (P49815 whole entry): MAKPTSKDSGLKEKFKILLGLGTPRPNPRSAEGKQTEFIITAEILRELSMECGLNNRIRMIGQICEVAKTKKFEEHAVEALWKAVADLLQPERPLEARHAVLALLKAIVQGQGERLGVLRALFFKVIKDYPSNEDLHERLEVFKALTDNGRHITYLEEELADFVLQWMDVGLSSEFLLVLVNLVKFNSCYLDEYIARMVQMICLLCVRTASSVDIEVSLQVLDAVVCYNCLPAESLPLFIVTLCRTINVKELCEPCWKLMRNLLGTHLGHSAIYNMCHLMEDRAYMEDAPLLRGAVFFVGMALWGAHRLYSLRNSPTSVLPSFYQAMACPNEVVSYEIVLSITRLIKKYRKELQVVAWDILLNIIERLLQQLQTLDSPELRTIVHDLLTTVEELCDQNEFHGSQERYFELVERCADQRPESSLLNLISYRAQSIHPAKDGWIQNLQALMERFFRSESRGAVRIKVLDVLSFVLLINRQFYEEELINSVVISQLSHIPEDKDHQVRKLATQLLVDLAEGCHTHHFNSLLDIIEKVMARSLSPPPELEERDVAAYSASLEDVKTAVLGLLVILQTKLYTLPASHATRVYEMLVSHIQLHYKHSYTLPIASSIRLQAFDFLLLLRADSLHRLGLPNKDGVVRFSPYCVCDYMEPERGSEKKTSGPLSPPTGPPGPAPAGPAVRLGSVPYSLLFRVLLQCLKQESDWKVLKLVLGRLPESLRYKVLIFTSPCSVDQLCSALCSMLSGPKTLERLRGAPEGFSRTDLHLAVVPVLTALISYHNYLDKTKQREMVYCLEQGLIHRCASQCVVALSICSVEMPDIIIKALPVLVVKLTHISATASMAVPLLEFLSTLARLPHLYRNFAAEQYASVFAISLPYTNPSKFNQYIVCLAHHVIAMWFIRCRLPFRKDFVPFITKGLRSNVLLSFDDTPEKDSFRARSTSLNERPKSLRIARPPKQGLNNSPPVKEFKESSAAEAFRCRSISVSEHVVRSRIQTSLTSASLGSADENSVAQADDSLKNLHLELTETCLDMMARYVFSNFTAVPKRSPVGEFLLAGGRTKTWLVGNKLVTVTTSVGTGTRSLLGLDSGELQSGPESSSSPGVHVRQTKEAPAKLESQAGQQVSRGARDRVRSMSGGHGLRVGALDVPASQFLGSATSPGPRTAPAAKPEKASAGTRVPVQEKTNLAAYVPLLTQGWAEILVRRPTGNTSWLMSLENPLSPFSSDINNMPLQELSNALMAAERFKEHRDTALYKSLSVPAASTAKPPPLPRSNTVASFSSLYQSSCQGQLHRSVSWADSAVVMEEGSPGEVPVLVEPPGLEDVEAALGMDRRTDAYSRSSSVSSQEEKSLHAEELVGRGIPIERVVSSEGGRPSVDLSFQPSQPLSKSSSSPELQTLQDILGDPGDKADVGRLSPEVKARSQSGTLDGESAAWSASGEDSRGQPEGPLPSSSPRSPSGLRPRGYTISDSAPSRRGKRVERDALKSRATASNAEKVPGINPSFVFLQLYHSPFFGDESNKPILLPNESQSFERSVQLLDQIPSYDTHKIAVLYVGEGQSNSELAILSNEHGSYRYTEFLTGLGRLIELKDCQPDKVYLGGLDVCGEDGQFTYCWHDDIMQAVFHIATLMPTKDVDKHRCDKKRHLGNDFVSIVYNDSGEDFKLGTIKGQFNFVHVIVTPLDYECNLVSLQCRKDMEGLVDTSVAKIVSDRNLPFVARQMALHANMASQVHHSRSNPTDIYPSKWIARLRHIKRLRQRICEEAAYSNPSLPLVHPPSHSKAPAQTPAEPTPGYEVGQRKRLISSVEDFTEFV
substance,measurement,value
HA-SGK1,phosphorylation of RXRXX(S/T) motifs on co-expression,co-expression of SGK1 with TSC2 increased the phosphorylation of RXRXX(S/T) (SEQ ID NO: 1) motifs

# Reference: patent publication US20180147232
